± gives the standard deviation of the averaged measurements.
B1: library; a variant is named by its letters at N, in order (parent)
chain: GAGACCGCAACTGAAAAGTTGTGGNNNNNATAGTGAGTCGCTGCCTGCAAAGACACAACT

Variants of: B1
Assay: ligation selection enrichment (abundance after / before one-round selection) (fold); higher = more template-directed ligation activity
Conditions: with T7Psub CACGGAUGCUAAUACGACUCACUAUA; MgCl2 25 mM; 42 °C; 4 h; pH 8.5
Summary of the method: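 An RNA ligase library with five randomized core positions, prepared by T7 transcription, was incubated at 0.75 μM with 6 μM RNA substrate in 50 mM EPPS pH 8.5 and 25 mM MgCl2 for 4 h at 42 °C, in two independent experiments. Ligated products were purified by PAGE, reverse transcribed, barcoded by PCR and sequenced on a MiSeq, and reads with a quality score of ≥30 at every randomized position were counted. Enrichment was calculated as abundance after ligation divided by abundance before ligation.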
GAGACCGCAACTGAAAAGTTGTGGTGGCTATAGTGAGTCGCTGCCTGCAAAGACACAACT [TGGCT] showed a ligation selection enrichment of 0.75 ± 0.2. Work on GAGACCGCAACTGAAAAGTTGTGGTGGCGATAGTGAGTCGCTGCCTGCAAAGACACAACT [TGGCG] yielded a ligation selection enrichment of 0.345 ± 0.019. GAGACCGCAACTGAAAAGTTGTGGTGGCCATAGTGAGTCGCTGCCTGCAAAGACACAACT [TGGCC] gave a ligation selection enrichment of 0.286 ± 0.041. GAGACCGCAACTGAAAAGTTGTGGTGGCAATAGTGAGTCGCTGCCTGCAAAGACACAACT [TGGCA] gave a ligation selection enrichment of 0.252 ± 0.025. Work on GAGACCGCAACTGAAAAGTTGTGGAGCGTATAGTGAGTCGCTGCCTGCAAAGACACAACT [AGCGT] yielded a ligation selection enrichment of 0.191 ± 0.054. GAGACCGCAACTGAAAAGTTGTGGAGCGGATAGTGAGTCGCTGCCTGCAAAGACACAACT [AGCGG] was tested, and the ligation selection enrichment was 0.213 ± 0.012. GAGACCGCAACTGAAAAGTTGTGGCGGGGATAGTGAGTCGCTGCCTGCAAAGACACAACT [CGGGG] gave a ligation selection enrichment of 0.165 ± 0.043. Work on GAGACCGCAACTGAAAAGTTGTGGCGGGAATAGTGAGTCGCTGCCTGCAAAGACACAACT [CGGGA] yielded a ligation selection enrichment of 0.229 ± 0.025. Variant GAGACCGCAACTGAAAAGTTGTGGCGGGCATAGTGAGTCGCTGCCTGCAAAGACACAACT [CGGGC] has a ligation selection enrichment of 0.0737 ± 0.008. With GAGACCGCAACTGAAAAGTTGTGGCGGGTATAGTGAGTCGCTGCCTGCAAAGACACAACT [CGGGT] the ligation selection enrichment was 0.147 ± 0.034. Work on GAGACCGCAACTGAAAAGTTGTGGAGGGTATAGTGAGTCGCTGCCTGCAAAGACACAACT [AGGGT] yielded a ligation selection enrichment of 0.289 ± 0.097. GAGACCGCAACTGAAAAGTTGTGGAGGGCATAGTGAGTCGCTGCCTGCAAAGACACAACT [AGGGC] showed a ligation selection enrichment of 0.109 ± 0.0024. For GAGACCGCAACTGAAAAGTTGTGGAGGGAATAGTGAGTCGCTGCCTGCAAAGACACAACT [AGGGA], the ligation selection enrichment was 0.322 ± 0.059. GAGACCGCAACTGAAAAGTTGTGGAGGGGATAGTGAGTCGCTGCCTGCAAAGACACAACT [AGGGG] showed a ligation selection enrichment of 0.251 ± 0.027. With GAGACCGCAACTGAAAAGTTGTGGCGGCTATAGTGAGTCGCTGCCTGCAAAGACACAACT [CGGCT] the ligation selection enrichment was 0.432 ± 0.15. GAGACCGCAACTGAAAAGTTGTGGCGGCGATAGTGAGTCGCTGCCTGCAAAGACACAACT [CGGCG] was tested, and the ligation selection enrichment was 0.328 ± 0.1. In the case of GAGACCGCAACTGAAAAGTTGTGGCGGCAATAGTGAGTCGCTGCCTGCAAAGACACAACT [CGGCA], the ligation selection enrichment is reported as 0.177 ± 0.036. GAGACCGCAACTGAAAAGTTGTGGCGGCCATAGTGAGTCGCTGCCTGCAAAGACACAACT [CGGCC] showed a ligation selection enrichment of 0.134 ± 0.031. GAGACCGCAACTGAAAAGTTGTGGGGGATATAGTGAGTCGCTGCCTGCAAAGACACAACT [GGGAT] showed a ligation selection enrichment of 167 ± 32. For GAGACCGCAACTGAAAAGTTGTGGGGGAAATAGTGAGTCGCTGCCTGCAAAGACACAACT [GGGAA], the ligation selection enrichment was 6.049 ± 0.019. Variant GAGACCGCAACTGAAAAGTTGTGGGGGACATAGTGAGTCGCTGCCTGCAAAGACACAACT [GGGAC] has a ligation selection enrichment of 30.7 ± 5.3. GAGACCGCAACTGAAAAGTTGTGGGGGAGATAGTGAGTCGCTGCCTGCAAAGACACAACT [GGGAG] was tested, and the ligation selection enrichment was 1.05 ± 0.051. GAGACCGCAACTGAAAAGTTGTGGTGCGCATAGTGAGTCGCTGCCTGCAAAGACACAACT [TGCGC] gave a ligation selection enrichment of 0.217 ± 0.02. Variant GAGACCGCAACTGAAAAGTTGTGGTGCGTATAGTGAGTCGCTGCCTGCAAAGACACAACT [TGCGT] has a ligation selection enrichment of 0.168 ± 0.021. Work on GAGACCGCAACTGAAAAGTTGTGGTGCGGATAGTGAGTCGCTGCCTGCAAAGACACAACT [TGCGG] yielded a ligation selection enrichment of 0.221 ± 0.0095. In the case of GAGACCGCAACTGAAAAGTTGTGGGGCGTATAGTGAGTCGCTGCCTGCAAAGACACAACT [GGCGT], the ligation selection enrichment is reported as 0.168 ± 0.023. In the case of GAGACCGCAACTGAAAAGTTGTGGGGCGGATAGTGAGTCGCTGCCTGCAAAGACACAACT [GGCGG], the ligation selection enrichment is reported as 0.252 ± 0.022. For GAGACCGCAACTGAAAAGTTGTGGGGGGTATAGTGAGTCGCTGCCTGCAAAGACACAACT [GGGGT], the ligation selection enrichment was 0.345 ± 0.11. GAGACCGCAACTGAAAAGTTGTGGGGGGCATAGTGAGTCGCTGCCTGCAAAGACACAACT [GGGGC] was tested, and the ligation selection enrichment was 0.21 ± 0.0028. Variant GAGACCGCAACTGAAAAGTTGTGGGGGGAATAGTGAGTCGCTGCCTGCAAAGACACAACT [GGGGA] has a ligation selection enrichment of 0.608 ± 0.042. For GAGACCGCAACTGAAAAGTTGTGGGGGGGATAGTGAGTCGCTGCCTGCAAAGACACAACT [GGGGG], the ligation selection enrichment was 0.405 ± 0.028. With GAGACCGCAACTGAAAAGTTGTGGAGGAGATAGTGAGTCGCTGCCTGCAAAGACACAACT [AGGAG] the ligation selection enrichment was 0.806 ± 0.1. In the case of GAGACCGCAACTGAAAAGTTGTGGAGGACATAGTGAGTCGCTGCCTGCAAAGACACAACT [AGGAC], the ligation selection enrichment is reported as 14.4 ± 2.2. For GAGACCGCAACTGAAAAGTTGTGGAGGATATAGTGAGTCGCTGCCTGCAAAGACACAACT [AGGAT], the ligation selection enrichment was 95.7 ± 0.79. Work on GAGACCGCAACTGAAAAGTTGTGGAGGAAATAGTGAGTCGCTGCCTGCAAAGACACAACT [AGGAA] yielded a ligation selection enrichment of 2.74 ± 0.034. Work on GAGACCGCAACTGAAAAGTTGTGGGGGCGATAGTGAGTCGCTGCCTGCAAAGACACAACT [GGGCG] yielded a ligation selection enrichment of 0.626 ± 0.07. GAGACCGCAACTGAAAAGTTGTGGGGGCAATAGTGAGTCGCTGCCTGCAAAGACACAACT [GGGCA] gave a ligation selection enrichment of 0.298 ± 0.033. Variant GAGACCGCAACTGAAAAGTTGTGGGGGCTATAGTGAGTCGCTGCCTGCAAAGACACAACT [GGGCT] has a ligation selection enrichment of 0.765 ± 0.27. For GAGACCGCAACTGAAAAGTTGTGGGGGCCATAGTGAGTCGCTGCCTGCAAAGACACAACT [GGGCC], the ligation selection enrichment was 0.243 ± 0.0042. With GAGACCGCAACTGAAAAGTTGTGGTGGAGATAGTGAGTCGCTGCCTGCAAAGACACAACT [TGGAG] the ligation selection enrichment was 1.119 ± 0.0088. GAGACCGCAACTGAAAAGTTGTGGTGGAAATAGTGAGTCGCTGCCTGCAAAGACACAACT [TGGAA] gave a ligation selection enrichment of 5.31 ± 0.71. In the case of GAGACCGCAACTGAAAAGTTGTGGTGGACATAGTGAGTCGCTGCCTGCAAAGACACAACT [TGGAC], the ligation selection enrichment is reported as 24.7 ± 2.8. GAGACCGCAACTGAAAAGTTGTGGTGGATATAGTGAGTCGCTGCCTGCAAAGACACAACT [TGGAT] was tested, and the ligation selection enrichment was 233 ± 62. For GAGACCGCAACTGAAAAGTTGTGGAGGCGATAGTGAGTCGCTGCCTGCAAAGACACAACT [AGGCG], the ligation selection enrichment was 0.527 ± 0.12.

From the supplement of paper PMC10219994
